Laboratory results from doi:10.1101/529222 (bioRxiv, 2019).

Target: GST-EVH1 domain of VASP (UniProt P70460 1-113)
Experiment: pull-down

Chain of GST-EVH1 domain of VASP (P70460 1-113): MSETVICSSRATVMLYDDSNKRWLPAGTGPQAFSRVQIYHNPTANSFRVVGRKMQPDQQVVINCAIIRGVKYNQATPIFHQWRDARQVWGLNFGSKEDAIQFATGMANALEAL

B1: endogenous TRIM9 (natural protein, mouse (endogenous in E15.5 cortex), UniProt Q8C7M3 1-817, looked up)
chain: MEEMEEELKCPVCGSFYREPIILPCSHNLCQACARNILVQTPESESPQSRRASGSGVSDYDYLDLDKMSLYSEADSGYGSYGGFASAPTTPCQKSPNGVRVFPPAMPPPPTHLSPALAPVPRNSCITCPQCHRSLILDDRGLRGFPKNRVLEGVIDRYQQSKAAALKCQLCEKAPKEATVMCEQCDVFYCDPCRLRCHPPRGPLAKHRLVPPAQGRVSRRLSPRKVSTCTDHELENHSMYCVQCKMPVCYQCLEEGKHSSHEVKALGAMWKLHKSQLSQALNGLSDRAKEAKEFLVQLRTMVQQIQENSVEFEACLVAQCDALIDALNRRKAQLLARVNKEHEHKLKVVRDQISHCTVKLRQTTGLMEYCLEVIKENDPSGFLQISDALIRRVHLTEDQWGKGTLTPRMTTDFDLSLDNSPLLQSIHQLDFVQVKASSPVPATPILQLEECCTHNNSATLSWKQPPLSTVAADGYILELDDGSGGQFREVYVGKETMCTVDGLHFNSTYNARVKAFNKTGVSPYSKTLVLQTSEAAGAHETKPMKDTDSEEQTLPFPVPSERLPLRRMSPFSSTLNLQPSFPGRSYFDFRSSPHQLSLHSSLQSLNAPGCNFETQSASYSQLVDIKKLLAVAWFAFDPGSAHSDIIFSNDNLTVTCSSYDDRVVLGKTGFSKGVHYWELTIDRYDNHPDPAFGVARIDVMKDMMLGKDDKAWAMYVDNNRSWFMHNNSHTNRTEGGITKGATIGVLLDLNRKTLTFFVNNEQQGPIAFENVEGLFFPAVSLNRNVQVSLWAPGLRACSGCYFKVCPGAVKSPQAPAP
fold change of TRIM9 precipitated, Trim67-/- lysate against wild-type lysate: ~2 fold
